Assay [1] has as its target T1, human IGSF11 (VSIG3) ECD, His-tagged (human, UniProt Q5DX21 23-241).
T1 construct: in part bought (SinoBiological 13094-H08H); also called HIS-IGSF11; IGSF11-HIS; not shown: His tag
T1 sequence: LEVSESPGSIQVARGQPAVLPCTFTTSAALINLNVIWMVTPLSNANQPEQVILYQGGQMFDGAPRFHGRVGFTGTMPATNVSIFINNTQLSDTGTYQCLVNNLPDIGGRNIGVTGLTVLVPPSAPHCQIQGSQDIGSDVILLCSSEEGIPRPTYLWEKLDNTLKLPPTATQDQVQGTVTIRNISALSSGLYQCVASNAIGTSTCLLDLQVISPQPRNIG
Briefly: IgG1 ELISA EC50 <0.02 nM.

For assay [2], the target named is T2, human IGSF11 (VSIG3) expressed on cells (human, UniProt Q5DX21 23-431).
T2 sequence: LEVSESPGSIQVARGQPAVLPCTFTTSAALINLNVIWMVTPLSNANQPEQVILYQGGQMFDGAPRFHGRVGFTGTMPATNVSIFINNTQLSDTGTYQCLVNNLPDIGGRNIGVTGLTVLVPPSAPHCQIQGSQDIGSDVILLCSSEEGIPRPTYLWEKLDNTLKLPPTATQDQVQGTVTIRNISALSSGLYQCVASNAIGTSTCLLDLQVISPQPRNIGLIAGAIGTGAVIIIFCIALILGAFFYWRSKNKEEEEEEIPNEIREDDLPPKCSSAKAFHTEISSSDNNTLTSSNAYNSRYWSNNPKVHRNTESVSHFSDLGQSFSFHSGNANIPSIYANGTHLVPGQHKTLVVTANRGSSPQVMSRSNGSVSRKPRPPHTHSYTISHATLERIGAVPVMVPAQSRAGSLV
Briefly: FACS, M579-A2-luc cells with IGSF11 siRNA (KD, knock-down control). Background: In flow cytometry, cells or beads pass a laser one at a time.

Assay [3] addresses T3, extracellular domain (ECD) of human IGSF11 (VSIG3), recombinant (human, UniProt Q5DX21 23-241).
T3 construct: biotinylated where captured on streptavidin; tags of the reagent not always stated; also called IGSF11 (ECD domain); ECD-IGSF11
T3 sequence: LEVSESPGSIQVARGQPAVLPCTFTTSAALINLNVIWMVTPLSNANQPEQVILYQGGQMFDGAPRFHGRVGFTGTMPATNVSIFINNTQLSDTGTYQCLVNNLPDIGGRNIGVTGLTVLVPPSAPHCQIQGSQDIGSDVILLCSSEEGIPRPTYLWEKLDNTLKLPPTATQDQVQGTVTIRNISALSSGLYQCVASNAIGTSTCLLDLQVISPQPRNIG
In words: BLI.

In assay [4] the target is T2, human IGSF11 (VSIG3) expressed on cells. In words: FACS, M579-A2-luc cells with scrambled control siRNA (SC).
For assay [5] the target is unchanged. Briefly: FACS, DMS 273 cells with scrambled control siRNA (SC).
The target is the same in assay [6]. In words: FACS, DMS 273 cells with IGSF11 siRNA (KD, knock-down control).
For assay [7] the target is unchanged. Briefly: IgG1 FACS HEK-OE.
Assay [8] has as its target T3, extracellular domain (ECD) of human …. In words: SPR.
Assay [9] concerns the target T4, IgC2 domain of human IGSF11 fused to murine IgG2a Fc (human, UniProt Q5DX21 137-241).
T4 construct: not shown: murine IgG2a Fc-region
T4 sequence: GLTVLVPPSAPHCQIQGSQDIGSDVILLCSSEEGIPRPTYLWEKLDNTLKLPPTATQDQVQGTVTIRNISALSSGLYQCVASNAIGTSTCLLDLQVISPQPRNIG
In words: IgG ELISA. Background: ELISA stands for enzyme-linked immunosorbent assay.

Assay [10] concerns the target T5, full-length ECD of human IGSF11 fused to murine Fc (human, UniProt Q5DX21 23-241).
T5 construct: also called Fc-fusion IGSF11 ECD; not shown: murine Fc
T5 sequence: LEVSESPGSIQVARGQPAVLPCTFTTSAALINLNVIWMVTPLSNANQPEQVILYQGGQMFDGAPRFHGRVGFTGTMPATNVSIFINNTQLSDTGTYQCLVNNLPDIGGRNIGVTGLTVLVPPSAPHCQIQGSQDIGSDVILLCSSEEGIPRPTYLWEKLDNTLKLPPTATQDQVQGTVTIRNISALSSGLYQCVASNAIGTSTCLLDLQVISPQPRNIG
Briefly: IgG ELISA.

The target of assay [11] is T1, human IGSF11 (VSIG3) ECD, His-tagged. Briefly: IgG1 ELISA EC50 0.02-0.05 nM.
Assay [12] shares this target. Briefly: blocking ELISA: VSIR-Fc immobilised, IgG dilution series pre-incubated with 200 nM IGSF11 ECD-His, bound IGSF11 detected with anti-His-HRP.
For assay [13] the target is unchanged. In words: ELISA: IGSF11-HIS coated, IgG1 dilution series, anti-human antibody-HRP, TMB.
Assay [14] has as its target T6, murine IGSF11 expressed on cells (mouse, UniProt P0C673 23-428).
T6 construct: MC38-IGSF11, CT26-IGSF11, MC38-wt (naturally expresses murine IGSF11)
T6 sequence: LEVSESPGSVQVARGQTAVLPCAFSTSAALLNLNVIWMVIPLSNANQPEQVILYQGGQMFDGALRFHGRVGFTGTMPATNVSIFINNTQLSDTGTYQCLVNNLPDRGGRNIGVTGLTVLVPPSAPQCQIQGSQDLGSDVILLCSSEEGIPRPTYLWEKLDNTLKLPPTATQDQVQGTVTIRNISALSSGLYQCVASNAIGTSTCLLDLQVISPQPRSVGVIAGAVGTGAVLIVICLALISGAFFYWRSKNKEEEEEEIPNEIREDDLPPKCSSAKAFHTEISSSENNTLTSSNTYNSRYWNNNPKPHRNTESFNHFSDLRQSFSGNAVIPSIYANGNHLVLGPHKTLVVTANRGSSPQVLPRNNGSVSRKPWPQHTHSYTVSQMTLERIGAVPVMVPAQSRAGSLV
Briefly: IgG FACS CT26-IGSF11.
Source text: (§1) Unbound antibodies were removed by washing the cells three time with FACS buffer. Bound antibodies were detected with a mouse anti-human IgG antibody conjugated with AlexaFluor647.

The target in assay [15] is T2, human IGSF11 (VSIG3) expressed on cells. In words: IgG FACS MDA-MB-231-IGSF11.
Source text: as §1
The target in assay [16] is T3, extracellular domain (ECD) of human …. Briefly: BLI apparent affinity, IgG on AHC sensor, IGSF11 ECD 100 nM.
Source text: Briefly, various APBs were loaded on an optical biosensor via a commercially available Capture System (AHC sensors, ForteBio).
The target of assay [17] is T7, IgV domain of human IGSF11 fused to murine IgG2a Fc (human, UniProt Q5DX21 23-143).
T7 construct: not shown: murine IgG2a Fc-region
T7 sequence: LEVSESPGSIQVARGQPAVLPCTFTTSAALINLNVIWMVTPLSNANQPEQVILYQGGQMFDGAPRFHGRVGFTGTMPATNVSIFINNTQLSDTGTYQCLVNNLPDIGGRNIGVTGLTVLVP
In words: IgG ELISA.

Assay [18] deals with T5, full-length ECD of human IGSF11 fused …. In words: IgG ELISA. This is another data set of the same source.
For assay [19], the target named is T6, murine IGSF11 expressed on cells. Briefly: IgG FACS MC38-IGSF11.
Source text: as §1
The target of assay [20] is T2, human IGSF11 (VSIG3) expressed on cells. Briefly: IgG FACS Colo741.
Source text: as §1
Assay [21] concerns the target T4, IgC2 domain of human IGSF11 fused to …. In words: IgG ELISA. The source holds these as a separate data set.

Like-named read-outs stand apart in the source and are kept apart here.

B1: A-011 (IgG1 format) (antibody, V domains shown)
VH: QVQLVESGGGVVQPGRSLRLSCAASGFTFSSYAMHWVRQAPGKGLEWVAVISYDGSNKYYADSVKGRFTISRDNSKNTLYLQMNSLRAEDTAVYYCAEGGALNYYGMDVWGQGTTVTVSS
VL: SSELTQDPGVSVALGQTVRITCQGDSLRHFYATWYQQKPGQAPILVIYGKNNRPSGIPDRFSGSSSEDTASLTITGAQAEDEADYYCQSRDPRNNHLIFGGGTKLIVL
notes: human IgG1 format
Regarding B1, the EC50 is below 0.02 nM in [1], above 50 nM in [7], below 1 nM in assay [9] and below 1 nM in assay [10]. Moreover, the “% binding (FACS heat-map)” value in assay [2] stood at 2.41%; in assay [4], 2.05%; in assay [5], 6.95%; in assay [6], 3.4%. Moreover, the Kd in assay [3] fell in the range of 10 to 20 nM; in assay [8], 250 to 500 nM.

B2: A-026 (IgG1 format) (antibody, V domains shown)
VH: QVQLQESGPGLVKPSQTLSLTCTVSGGSISSGGYYWSWIRQHPGKGLEWIGYIYYSGSTYYNPSLKSRVTISVDTSKNQFSLKLSSVTAADTAVYYCASWSLGTSNHGWFDPWGQGTLVTVSS
VL: QSVLTQPPSASGTPGQRVTISCSGSSSNIGSNTVNWYQQLPGTAPKLLISDNNNRPSGVPDRFSGSKSGTSASLAITGLQAEDEADYYCQSYDSNLSGWVFGGGTKLTVL
notes: human IgG1 format
In the case of B2, the “% binding (FACS heat-map)” value was 2.01% in [2], 11.6% in assay [4], 64.4% in assay [5] and 3.81% in assay [6]. Also, the Kd in assay [3] was 20 to 30 nM; in assay [8], above 500 nM. Also, the EC50 was 0.02 to 0.05 nM in assay [11], above 50 nM in assay [7], 1 to 20 nM in assay [9] and 1 to 20 nM in assay [10].

B3: B-003 (chain-swapped IgG1) (antibody, V domains shown)
VH: EVQLLESGGGLIQPGGSLRLSCAVSGFTVSSNYMSWVRQAPGKGLEWVSVIYSGGSTYYADSVKGRFTISRDNSKNTLYLQMNSLRAEDTAVYYCARGNPYYYGDLQVNFDYWGQGTLVTVSS
VL: QAVVTQEPSLTVSPGETVTLTCASSTGAVTSGYYPNWFQQRPGQAPRALIYSTSNKDSWTPARFSGSLLGGKAALTLSGVQPEDEAEYYCLLYYGGAWVFGGGTKLTVL
notes: human IgG1 format; also called B3
In the case of B3, the “IC50 (read off the curve)” value in assay [12] is around 2 nM. Moreover, the concentration for a half-maximal effect (EC50 (read off the curve)) in assay [13] was around 8 pM.

B4: B-005 (chain-swapped IgG1) (antibody, V domains shown)
VH: EVQLLESGGGLIQPGGSLRLSCAVSGFTVSSNYMSWVRQAPGKGLEWVSVIYSGGSTYYADSVKGRFTISRDNSKNTLYLQMNSLRAEDTAVYYCARGNPYYYGDLQVNFDYWGQGTLVTVSS
VL: QAVVTQEPSLTVSPGGTVTPTCGSSTGAVTSGNLPNWFQQKPGQAPRALIYSTSNKHSWTPARISGSLLGGKAALTLSGVQPEDEAEYYCLLYYGGAWVFGGGTKLTVL
notes: human IgG1 format; also called B5
On to B4, for which the “IC50 (read off the curve)” value in assay [12] was around 2 nM. The “EC50 (read off the curve)” value in assay [13] is around 10 pM.

B5: C-007 (IgG1 format) (antibody, V domains shown)
VH: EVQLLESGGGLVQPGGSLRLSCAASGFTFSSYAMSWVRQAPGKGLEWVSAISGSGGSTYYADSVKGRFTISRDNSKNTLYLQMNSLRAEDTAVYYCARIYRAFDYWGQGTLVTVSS
VL: ASVLTQPPSVSAAPGQKVTISCSGSSSNIGNNYVSWYQQLPGTAPKLLIYDNNKRPSGIPDRFSGSKSGTSATLGITGLQAEDEADYYCQLYEEEHSTWVFGGGTKLTVL
For the molecule B5, the EC50 was 20 to 50 nM in assay [14]; below 10 nM in [15]; below 1 nM in assay [17]; below 1 nM in [18]; below 20 nM in assay [19]. Moreover, the Kd in [16] is below 125 nM.

B6: C-001 (IgG1 format) (antibody, V domains shown)
VH: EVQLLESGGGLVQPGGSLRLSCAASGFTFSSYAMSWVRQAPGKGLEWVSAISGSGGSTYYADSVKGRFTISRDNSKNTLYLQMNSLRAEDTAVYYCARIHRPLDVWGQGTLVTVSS
VL: ASVLTQPPSVSAAPGQKVTISCSGSSSNIGNNYVSWYQQLPGTAPKLLIYDNNKRPSGIPDRFSGSKSGTSATLGITGLQAEDEADYYCGSWLEERSQYVFGGGTKLTVL
B6: the EC50 was 20 to 50 nM in assay [14]; below 10 nM in [15]; below 1 nM in assay [17]; below 1 nM in assay [18]; 50 to 100 nM in assay [19]. Also, the Kd in assay [16] was below 75 nM.

B7: D-115 (IgG format) (antibody, V domains shown)
VH: EVQLLESGGGLVQPGGSLRLSCAASGFTFQFSALSWVRQAPGKGLEWVSAISYGGGSKYYADSVKGRFTISRDNSKNTLYLQMNSLRAEDTAVYYCARDSRDAYGVAFDLWGQGTMVTVSS
VL: ASVLTQPPSVSAAPGQKVTISCSGSSSNIGNNYVSWYQQLPGTAPKLLIYDNNKRPSGIPDRFSGSKSGTSATLGITGLQAEDEADYYCQSYESRLFVFGGGTKLTVL
For the molecule B7, the EC50 in assay [20] was below 0.1 nM.

B8: C-003 (IgG1 format) (antibody, V domains shown)
VH: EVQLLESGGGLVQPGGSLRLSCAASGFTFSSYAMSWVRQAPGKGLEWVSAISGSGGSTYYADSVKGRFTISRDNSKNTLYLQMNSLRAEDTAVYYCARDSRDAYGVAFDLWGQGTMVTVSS
VL: ASVLTQPPSVSAAPGQKVTISCSGSSSNIGNNYVSWYQQLPGTAPKLLIYDNNKRPSGIPDRFSGSKSGTSATLGITGLQAEDEADYYCLSYTSSQYVFGGGTKLTVL
On to B8, for which the EC50 in [14] was below 20 nM; in [15] it was 10 to 15 nM; in assay [21] it was below 1 nM; in assay [18], below 1 nM; in [19] it was below 20 nM. Also, the Kd in assay [16] is below 15 nM.

The EC50 is the concentration at which the effect is half-maximal. By EC50 (read off the curve) is commonly meant the midpoint of the concentration-response curve. A high value points to lower potency in that assay.

The record behind these values is patent US20220372138A1 (IOMX THERAPEUTICS, published 2022).
